According to the supplement of paper PMC9112550, “Optimization of the antimicrobial peptide Bac7 by deep mutational scanning” (BMC Biology, 2022):

Tested on: Escherichia coli TOP10
Assay: shrunken log2 fold change of peptide-encoding DNA abundance (4.5 h post-induction vs induction); higher = less antimicrobial activity (less host growth inhibition)
Settings: time post-induction: 4.5 h; library: site-saturation at positions 5, 18, 19, 20
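Further: peptides expressed intracellularly from a pBAD plasmid library in pooled LB shake-flask culture, induced with 0.3% L-arabinose, DNA abundance read by NGS, three biological replicates, DESeq2 with apeglm shrinkage.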

For RRIRYRPPRLPRPRPRPATRPRP, the “shrunken log2 fold change” value was 0.098.
For RRIRERPPRLPRPRPRPCCVPRP, the “shrunken log2 fold change” value was -0.743.
For RRIRMRPPRLPRPRPRPLQIPRP, the “shrunken log2 fold change” value was -0.343.
For RRIRLRPPRLPRPRPRPHLAPRP, the “shrunken log2 fold change” value was 0.053.
In the case of RRIRDRPPRLPRPRPRPVTAPRP, the “shrunken log2 fold change” value is reported as 0.157.
With RRIRARPPRLPRPRPRPWIAPRP the “shrunken log2 fold change” value was -0.0071.
RRIRQRPPRLPRPRPRPPIQPRP was tested, and the “shrunken log2 fold change” value was -0.164.
With RRIRHRPPRLPRPRPRPTRIPRP the “shrunken log2 fold change” value was -0.0296.
For RRIRPRPPRLPRPRPRPFREPRP, the “shrunken log2 fold change” value was 0.261.
In the case of RRIRKRPPRLPRPRPRPNSLPRP, the “shrunken log2 fold change” value is reported as -0.00111.
With RRIRARPPRLPRPRPRPMDNPRP the “shrunken log2 fold change” value was -0.114.
RRIRHRPPRLPRPRPRPHYFPRP was tested, and the “shrunken log2 fold change” value was 0.00508.
RRIRGRPPRLPRPRPRPMMQPRP was tested, and the “shrunken log2 fold change” value was 1.
With RRIRARPPRLPRPRPRPSESPRP the “shrunken log2 fold change” value was 0.0591.
For RRIRKRPPRLPRPRPRPVHDPRP, the “shrunken log2 fold change” value was 0.0707.
RRIRQRPPRLPRPRPRPDIDPRP was tested, and the “shrunken log2 fold change” value was -0.078.
RRIRIRPPRLPRPRPRPDFFPRP was tested, and the “shrunken log2 fold change” value was -0.415.
For RRIRNRPPRLPRPRPRPAIMPRP, the “shrunken log2 fold change” value was -0.0978.
In the case of RRIRIRPPRLPRPRPRPAGLPRP, the “shrunken log2 fold change” value is reported as -0.0628.
RRIRDRPPRLPRPRPRPLEKPRP was tested, and the “shrunken log2 fold change” value was 0.0929.
RRIRKRPPRLPRPRPRPMINPRP was tested, and the “shrunken log2 fold change” value was 0.148.
In the case of RRIRSRPPRLPRPRPRPQEPPRP, the “shrunken log2 fold change” value is reported as -0.284.
For RRIRQRPPRLPRPRPRPKRKPRP, the “shrunken log2 fold change” value was 0.684.
In the case of RRIRLRPPRLPRPRPRPIGTPRP, the “shrunken log2 fold change” value is reported as -0.0773.
With RRIRCRPPRLPRPRPRPGYDPRP the “shrunken log2 fold change” value was -0.167.
RRIRDRPPRLPRPRPRPLDHPRP was tested, and the “shrunken log2 fold change” value was 0.0841.
RRIRLRPPRLPRPRPRPPCRPRP was tested, and the “shrunken log2 fold change” value was 0.0548.
For RRIRVRPPRLPRPRPRPNSMPRP, the “shrunken log2 fold change” value was -0.575.
For RRIRGRPPRLPRPRPRPTPSPRP, the “shrunken log2 fold change” value was 0.954.
RRIRPRPPRLPRPRPRPIVNPRP was tested, and the “shrunken log2 fold change” value was -0.166.
In the case of RRIRRRPPRLPRPRPRPCAAPRP, the “shrunken log2 fold change” value is reported as 0.743.
For RRIRNRPPRLPRPRPRPPREPRP, the “shrunken log2 fold change” value was 0.534.
RRIRERPPRLPRPRPRPIIDPRP was tested, and the “shrunken log2 fold change” value was -0.0746.
RRIRGRPPRLPRPRPRPGYHPRP was tested, and the “shrunken log2 fold change” value was 0.0713.
With RRIRCRPPRLPRPRPRPRTTPRP the “shrunken log2 fold change” value was 0.472.
With RRIRSRPPRLPRPRPRPPGHPRP the “shrunken log2 fold change” value was 0.167.
In the case of RRIRQRPPRLPRPRPRPIMQPRP, the “shrunken log2 fold change” value is reported as -0.0377.
For RRIRQRPPRLPRPRPRPTAAPRP, the “shrunken log2 fold change” value was 0.933.
RRIRHRPPRLPRPRPRPYCQPRP was tested, and the “shrunken log2 fold change” value was -0.746.
RRIRCRPPRLPRPRPRPSTRPRP was tested, and the “shrunken log2 fold change” value was -0.119.
For RRIRHRPPRLPRPRPRPTCSPRP, the “shrunken log2 fold change” value was 0.0782.
With RRIRCRPPRLPRPRPRPPRSPRP the “shrunken log2 fold change” value was 0.993.
RRIRERPPRLPRPRPRPFCAPRP was tested, and the “shrunken log2 fold change” value was 0.548.
With RRIRTRPPRLPRPRPRPAYYPRP the “shrunken log2 fold change” value was 0.0141.
In the case of RRIRYRPPRLPRPRPRPPWFPRP, the “shrunken log2 fold change” value is reported as -0.205.
RRIRDRPPRLPRPRPRPWLPPRP was tested, and the “shrunken log2 fold change” value was 0.0708.
With RRIRWRPPRLPRPRPRPPWHPRP the “shrunken log2 fold change” value was 0.134.
In the case of RRIRKRPPRLPRPRPRPSHHPRP, the “shrunken log2 fold change” value is reported as 0.02.
With RRIRIRPPRLPRPRPRPNARPRP the “shrunken log2 fold change” value was 0.0831.
For RRIRHRPPRLPRPRPRPRTDPRP, the “shrunken log2 fold change” value was 0.0682.
With RRIRRRPPRLPRPRPRPHFQPRP the “shrunken log2 fold change” value was -0.0173.
For RRIRFRPPRLPRPRPRPRKDPRP, the “shrunken log2 fold change” value was -0.302.
RRIRYRPPRLPRPRPRPCFNPRP was tested, and the “shrunken log2 fold change” value was -0.262.
For RRIRGRPPRLPRPRPRPIPRPRP, the “shrunken log2 fold change” value was 0.519.
In the case of RRIRKRPPRLPRPRPRPEEQPRP, the “shrunken log2 fold change” value is reported as 3.17.
In the case of RRIRIRPPRLPRPRPRPDSEPRP, the “shrunken log2 fold change” value is reported as 0.0636.
With RRIRDRPPRLPRPRPRPDGSPRP the “shrunken log2 fold change” value was 0.0891.
With RRIRCRPPRLPRPRPRPFEAPRP the “shrunken log2 fold change” value was 0.102.
RRIRVRPPRLPRPRPRPHKTPRP was tested, and the “shrunken log2 fold change” value was -0.127.
With RRIRSRPPRLPRPRPRPNCQPRP the “shrunken log2 fold change” value was -0.0974.
In the case of RRIRRRPPRLPRPRPRPLDEPRP, the “shrunken log2 fold change” value is reported as 0.632.
In the case of RRIRARPPRLPRPRPRPLKIPRP, the “shrunken log2 fold change” value is reported as -0.165.
In the case of RRIRRRPPRLPRPRPRPSLMPRP, the “shrunken log2 fold change” value is reported as -0.0626.
For RRIRIRPPRLPRPRPRPRTWPRP, the “shrunken log2 fold change” value was -0.0123.
In the case of RRIRARPPRLPRPRPRPERAPRP, the “shrunken log2 fold change” value is reported as 0.845.
In the case of RRIRCRPPRLPRPRPRPYLPPRP, the “shrunken log2 fold change” value is reported as -1.2.
For RRIRYRPPRLPRPRPRPQAKPRP, the “shrunken log2 fold change” value was -0.0419.
In the case of RRIRLRPPRLPRPRPRPHPYPRP, the “shrunken log2 fold change” value is reported as -0.379.
For RRIRERPPRLPRPRPRPMHPPRP, the “shrunken log2 fold change” value was 0.464.
With RRIRKRPPRLPRPRPRPRATPRP the “shrunken log2 fold change” value was 1.17.
In the case of RRIRCRPPRLPRPRPRPADIPRP, the “shrunken log2 fold change” value is reported as -0.941.
RRIRKRPPRLPRPRPRPNGLPRP was tested, and the “shrunken log2 fold change” value was -0.0579.
With RRIRWRPPRLPRPRPRPIILPRP the “shrunken log2 fold change” value was -0.283.
RRIRKRPPRLPRPRPRPMRMPRP was tested, and the “shrunken log2 fold change” value was 1.84.
With RRIRGRPPRLPRPRPRPHCEPRP the “shrunken log2 fold change” value was 0.22.
In the case of RRIRERPPRLPRPRPRPLRQPRP, the “shrunken log2 fold change” value is reported as 0.0463.
For RRIRVRPPRLPRPRPRPRKGPRP, the “shrunken log2 fold change” value was 0.328.
With RRIRYRPPRLPRPRPRPYFWPRP the “shrunken log2 fold change” value was -1.4.
RRIRCRPPRLPRPRPRPEQGPRP was tested, and the “shrunken log2 fold change” value was -0.205.
For RRIRNRPPRLPRPRPRPVYQPRP, the “shrunken log2 fold change” value was -0.00185.
RRIRMRPPRLPRPRPRPVYVPRP was tested, and the “shrunken log2 fold change” value was -0.161.
For RRIRFRPPRLPRPRPRPGKQPRP, the “shrunken log2 fold change” value was 0.0463.
RRIRARPPRLPRPRPRPEMDPRP was tested, and the “shrunken log2 fold change” value was 0.41.
RRIRDRPPRLPRPRPRPTWMPRP was tested, and the “shrunken log2 fold change” value was 0.507.
For RRIRWRPPRLPRPRPRPTWGPRP, the “shrunken log2 fold change” value was 0.356.
With RRIRKRPPRLPRPRPRPTHMPRP the “shrunken log2 fold change” value was 0.37.
With RRIRGRPPRLPRPRPRPGRRPRP the “shrunken log2 fold change” value was 0.849.
With RRIRHRPPRLPRPRPRPWPLPRP the “shrunken log2 fold change” value was -0.306.
RRIRMRPPRLPRPRPRPECSPRP was tested, and the “shrunken log2 fold change” value was 0.333.
For RRIRERPPRLPRPRPRPQSVPRP, the “shrunken log2 fold change” value was -0.0488.
With RRIRCRPPRLPRPRPRPITWPRP the “shrunken log2 fold change” value was -0.189.
In the case of RRIRCRPPRLPRPRPRPGDMPRP, the “shrunken log2 fold change” value is reported as -0.115.
RRIRMRPPRLPRPRPRPIEQPRP was tested, and the “shrunken log2 fold change” value was 0.0161.
For RRIRIRPPRLPRPRPRPPWLPRP, the “shrunken log2 fold change” value was 0.412.
RRIRDRPPRLPRPRPRPFVFPRP was tested, and the “shrunken log2 fold change” value was 0.175.
With RRIRIRPPRLPRPRPRPLWPPRP the “shrunken log2 fold change” value was -0.0906.
RRIRWRPPRLPRPRPRPRWGPRP was tested, and the “shrunken log2 fold change” value was 0.534.
In the case of RRIRMRPPRLPRPRPRPVMTPRP, the “shrunken log2 fold change” value is reported as 0.148.
In the case of RRIRNRPPRLPRPRPRPNQVPRP, the “shrunken log2 fold change” value is reported as -0.255.
With RRIRVRPPRLPRPRPRPWPMPRP the “shrunken log2 fold change” value was 0.0297.
With RRIRRRPPRLPRPRPRPFDTPRP the “shrunken log2 fold change” value was -0.154.
For RRIRMRPPRLPRPRPRPFKRPRP, the “shrunken log2 fold change” value was 0.0293.
RRIRMRPPRLPRPRPRPCVRPRP was tested, and the “shrunken log2 fold change” value was 0.0764.
With RRIRHRPPRLPRPRPRPIEPPRP the “shrunken log2 fold change” value was -0.133.
For RRIRWRPPRLPRPRPRPKNWPRP, the “shrunken log2 fold change” value was 0.188.
With RRIRHRPPRLPRPRPRPLGGPRP the “shrunken log2 fold change” value was -0.0164.
In the case of RRIRYRPPRLPRPRPRPMSHPRP, the “shrunken log2 fold change” value is reported as -0.425.
RRIRLRPPRLPRPRPRPIENPRP was tested, and the “shrunken log2 fold change” value was 0.0407.
With RRIRHRPPRLPRPRPRPIIAPRP the “shrunken log2 fold change” value was -0.272.
In the case of RRIRERPPRLPRPRPRPCMVPRP, the “shrunken log2 fold change” value is reported as -1.08.
RRIRTRPPRLPRPRPRPDTKPRP was tested, and the “shrunken log2 fold change” value was -0.212.
RRIRWRPPRLPRPRPRPTQEPRP was tested, and the “shrunken log2 fold change” value was 0.0333.
For RRIRMRPPRLPRPRPRPGCVPRP, the “shrunken log2 fold change” value was 0.967.
With RRIRRRPPRLPRPRPRPKPMPRP the “shrunken log2 fold change” value was 0.687.
With RRIRYRPPRLPRPRPRPECTPRP the “shrunken log2 fold change” value was 0.0109.
For RRIRDRPPRLPRPRPRPCVWPRP, the “shrunken log2 fold change” value was 0.321.
In the case of RRIRCRPPRLPRPRPRPVQGPRP, the “shrunken log2 fold change” value is reported as -0.0182.
In the case of RRIRTRPPRLPRPRPRPIPAPRP, the “shrunken log2 fold change” value is reported as 0.0613.
RRIRMRPPRLPRPRPRPDTIPRP was tested, and the “shrunken log2 fold change” value was 0.0143.
With RRIRERPPRLPRPRPRPTGNPRP the “shrunken log2 fold change” value was -0.267.
In the case of RRIRTRPPRLPRPRPRPPNCPRP, the “shrunken log2 fold change” value is reported as 0.0905.
RRIRARPPRLPRPRPRPKQAPRP was tested, and the “shrunken log2 fold change” value was 0.147.
For RRIRRRPPRLPRPRPRPLWWPRP, the “shrunken log2 fold change” value was 0.48.
In the case of RRIRVRPPRLPRPRPRPNDQPRP, the “shrunken log2 fold change” value is reported as -0.0759.
In the case of RRIRLRPPRLPRPRPRPGMHPRP, the “shrunken log2 fold change” value is reported as 0.299.
